Publication PMC4944982

Columns and labels:
[1] = target: human FGFR1 (transcript variant 2), overexpressed on HEK293T cells (human) (UniProt P11362); experiment: bioluminescent (NanoLuc) competition binding on living cells; adherent HEK293T cells transiently overexpressing human FGFR1; constant FGF2-Luc as tracer and various concentrations of wild-type or mutant FGF2 in serum-free DMEM plus 1% BSA and 5 μg/ml heparin, 20°C, 2–3 h
[2] = target: endogenous FGF receptor of untransfected HEK293T cells (human (endogenous in HEK293T)) (UniProt P11362); experiment: bioluminescent (NanoLuc) competition binding on living cells; untransfected HEK293T cells in suspension in a 96-well filtration plate; constant FGF2-Luc as tracer and various concentrations of wild-type or mutant FGF2 in serum-free DMEM plus 1% BSA and 5 μg/ml heparin, 20°C, 2–3 h
[3] = target: endogenous FGF receptor of untransfected HEK293T cells (human (endogenous in HEK293T)) (UniProt P11362)
[4] = target: human FGFR1 (transcript variant 2), overexpressed on HEK293T cells (human) (UniProt P11362); experiment: bioluminescent (NanoLuc) saturation binding on living cells; adherent HEK293T cells transiently overexpressing human FGFR1 in 96-well plates; various concentrations of FGF2-Luc in serum-free DMEM plus 1% BSA and 5 μg/ml heparin, 20°C, 2–3 h; nonspecific binding with 250 nM 6×His-FGF2; one-site model
[5] = target: endogenous FGF receptor of untransfected HEK293T cells (human (endogenous in HEK293T)) (UniProt P11362); experiment: bioluminescent (NanoLuc) saturation binding on living cells; untransfected HEK293T cells in suspension in a 96-well filtration plate; various concentrations of FGF2-Luc in serum-free DMEM plus 1% BSA and 5 μg/ml heparin, 20°C, 2–3 h; nonspecific binding with 250 nM 6×His-FGF2; one-site model

IC50 [1] [nM]	IC50 [2] [nM]	EC50 of activation of a serum response element (SRE)-controlled NanoLuc reporter in HEK293T cells [3] [nM]	Kd [4] [nM]	Kd [5] [nM]	Substance
0.65	0.081	0.058			6×His-FGF2 (ligand)
5.88	10	0.794			6×His-[Y111A]FGF2 (ligand)
			0.161	0.025	NanoLuc-conjugated FGF2 (FGF2-Luc) (ligand)
		0.1			6×His-[C95S]FGF2 (ligand)
3.45	5.4	0.309			6×His-[Y32A]FGF2 (ligand)
